Drawing on the supplement of paper PMC10567573, this text covers protein stability index for 94 variants.

B1: IRX6 (parent)
chain: YPCLEKPRIWSLAHTATASAVEGA
B2: SNAP91 (parent)
chain: FGGSFMAPSPSPVTPAQNNLLQPN
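Also: lentivirally expressed fusions sorted by FACS into six bins by GFP to DsRed ratio, PSI derived from sequencing read proportions per bin multiplied by bin number.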

Variants of B1 are the subject of the first series. Briefly: protein stability index of a GFP-peptide fusion (GPS, HEK-293T) (PSI 1-6); higher = more stable. Particulars: c terminus: a fixed tail appended.
As for YPCLEKPRIWSLAHTATASAVENA, the protein stability index was 2.68.
As to YPCLEKPRIWSLAHTATASAVEVA, the protein stability index is 3.24.
The same measure, in the same setting: the figure for YPCLEKPRIWSLAHTATASAVESA is 2.13; for YPCLEKPRIWSLAHTATASAVEEA it is 2.33.
Still for that read-out and setting: then YPCLEKPRIWSLAHTATASAVECA, with 1.41.
For the variant YPCLEKPRIWSLAHTATASAVELA, the protein stability index came out at 2.7.
Same read-out and setting: the figure for YPCLEKPRIWSLAHTATASAVEYA is 3.63; for YPCLEKPRIWSLAHTATASAVEIA it is 3.44; for YPCLEKPRIWSLAHTATASAVEFA it is 2.97.
Still for that read-out and setting: then YPCLEKPRIWSLAHTATASAVEAA, with 2.6; and YPCLEKPRIWSLAHTATASAVETA, with 2.95.
In the case of YPCLEKPRIWSLAHTATASAVEQA, the protein stability index worked out at 1.25.
Same read-out and setting: then YPCLEKPRIWSLAHTATASAVEWA, with 1.98.
On to YPCLEKPRIWSLAHTATASAVEGS, for which the protein stability index came to 1.91.
As to YPCLEKPRIWSLAHTATASAVEGE, the protein stability index was found to be 2.22.
With YPCLEKPRIWSLAHTATASAVEGV, the protein stability index turned out to be 3.01.
On to YPCLEKPRIWSLAHTATASAVEGY, for which the protein stability index was 3.06.
On to YPCLEKPRIWSLAHTATASAVEGK, for which the protein stability index amounted to 3.48.
On to YPCLEKPRIWSLAHTATASAVEGW, for which the protein stability index was determined as 2.31.
Regarding YPCLEKPRIWSLAHTATASAVEGI, the protein stability index worked out at 3.09.
On the same count and under the same terms, then YPCLEKPRIWSLAHTATASAVEGM, with 2.52; and YPCLEKPRIWSLAHTATASAVEGC, with 2.18; and YPCLEKPRIWSLAHTATASAVEGH, with 3.03.
The same measure, in the same setting: the figure for YPCLEKPRIWSLAHTATASAVEGD is 2.95; for YPCLEKPRIWSLAHTATASAVEGR it is 2.99; for YPCLEKPRIWSLAHTATASAYEGA it is 2.29.
On the same count and under the same terms, the figure for YPCLEKPRIWSLAHTATASANEGA is 2.73.
On to YPCLEKPRIWSLAHTATASAREGA, for which the protein stability index was found to be 2.62.
The same measure, in the same setting: the figure for YPCLEKPRIWSLAHTATASACEGA is 1.23.
On the same count and under the same terms, the figure for YPCLEKPRIWSLAHTATASAMEGA is 1.82.
Regarding YPCLEKPRIWSLAHTATASASEGA, the protein stability index turned out to be 1.6.
Still for that read-out and setting: the figure for YPCLEKPRIWSLAHTATASALEGA is 1.1; for YPCLEKPRIWSLAHTATASATEGA it is 2.23.
As to YPCLEKPRIWSLAHTATASAKEGA, the protein stability index was 1.45.
Take YPCLEKPRIWSLAHTATASAWEGA: the protein stability index came out at 3.41.
On the same count and under the same terms, the figure for YPCLEKPRIWSLAHTATASAPEGA is 3.82.
The same measure, in the same setting: the figure for YPCLEKPRIWSLAHTATASAFEGA is 3.51.
On to YPCLEKPRIWSLAHTATASAHEGA, for which the protein stability index came out at 2.21.
With YPCLEKPRIWSLAHTATASADEGA, the protein stability index turned out to be 1.82.
The same measure, in the same setting: the figure for YPCLEKPRIWSLAHTAWASAVEGA is 2.29.
Same read-out and setting: then YPCLEKPRIWSLAHTAYASAVEGA, with 2.64; and YPCLEKPRIWSLAHTASASAVEGA, with 1.83.
With YPCLEKPRIWSLAHTATARAVEGA, the protein stability index turned out to be 1.91.
In the case of YPCLEKPRIWSLAHTATAIAVEGA, the protein stability index turned out to be 2.52.
Turning to YPCLEKPRIWSLAHTATAYAVEGA, the protein stability index is 4.1.
On the same count and under the same terms, the figure for YPCLEKPRIWSLAHTATAMAVEGA is 2.98.
For the variant YPCLEKPRIWSLAHTATAQAVEGA, the protein stability index worked out at 3.07.
Same read-out and setting: the figure for YPCLEKPRIWSLAHTATAEAVEGA is 1.97.
On the same count and under the same terms, the figure for YPCLEKPRIWSLAHTATAKAVEGA is 1.9; for YPCLEKPRIWSLAHTATANAVEGA it is 2.27; for YPCLEKPRIWSLAHTATAVAVEGA it is 2.07.
Still for that read-out and setting: the figure for YPCLEKPRIWSLAHTATAWAVEGA is 3.1.
For the variant YPCLEKPRIWSLAHTATAFAVEGA, the protein stability index came out at 3.32.
Same read-out and setting: the figure for YPCLEKPRIWSLAHTATADAVEGA is 1.83.
For YPCLEKPRIWSLAHTATYSAVEGA, the protein stability index amounted to 3.
On the same count and under the same terms, then YPCLEKPRIWSLAHTATPSAVEGA, with 3.41.
On the same count and under the same terms, the figure for YPCLEKPRIWSLAHTATTSAVEGA is 3.02; for YPCLEKPRIWSLAHTATDSAVEGA it is 1.78; for YPCLEKPRIWSLAHTATMSAVEGA it is 3.02.
Same read-out and setting: then YPCLEKPRIWSLAHTATVSAVEGA, with 2.84; and YPCLEKPRIWSLAHTATNSAVEGA, with 2.65.
On to YPCLEKPRIWSLAHTATKSAVEGA, for which the protein stability index turned out to be 2.59.
Take YPCLEKPRIWSLAHTATISAVEGA: the protein stability index is 3.17.
On the same count and under the same terms, the figure for YPCLEKPRIWSLAHTATRSAVEGA is 3.8.
Consider YPCLEKPRIWSLAHTATHSAVEGA, for which the protein stability index is 2.15.
As to YPCLEKPRIWSLAHTATWSAVEGA, the protein stability index came out at 2.05.
The same measure, in the same setting: then YPCLEKPRIWSLAHTATASAVDGA, with 2.16; and YPCLEKPRIWSLAHTATASAVKGA, with 2.29.
Same read-out and setting: then YPCLEKPRIWSLAHTATASAVCGA, with 3.29.
For YPCLEKPRIWSLAHTATASAVFGA, the protein stability index worked out at 3.04.
On the same count and under the same terms, the figure for YPCLEKPRIWSLAHTATASAVHGA is 2.05.
With YPCLEKPRIWSLAHTATASAVTGA, the protein stability index came to 2.63.
On the same count and under the same terms, then YPCLEKPRIWSLAHTATASAVPGA, with 2.34.
As for YPCLEKPRIWSLAHTATASAVVGA, the protein stability index was found to be 2.62.
Take YPCLEKPRIWSLAHTATASAVGGA: the protein stability index is 3.1.
For the variant YPCLEKPRIWSLAHTATASAVSGA, the protein stability index amounted to 1.1.
The same measure, in the same setting: then YPCLEKPRIWSLAHTATASAVMGA, with 3.75; and YPCLEKPRIWSLAHTATASAVRGA, with 2.98; and YPCLEKPRIWSLAHTATASAVNGA, with 3.13.
For the variant YPCLEKPRIWSLAHTATASAVLGA, the protein stability index is 2.67.
Still for that read-out and setting: the figure for YPCLEKPRIWSLAHTATASAVWGA is 1.73; for YPCLEKPRIWSLAHTATASFVEGA it is 1.69; for YPCLEKPRIWSLAHTATASHVEGA it is 3.49.
Still for that read-out and setting: the figure for YPCLEKPRIWSLAHTATASEVEGA is 1.86; for YPCLEKPRIWSLAHTATASMVEGA it is 1.53; for YPCLEKPRIWSLAHTATASIVEGA it is 2.52.
On the same count and under the same terms, then YPCLEKPRIWSLAHTATASNVEGA, with 2.87; and YPCLEKPRIWSLAHTATASKVEGA, with 3.07.
For the variant YPCLEKPRIWSLAHTATASLVEGA, the protein stability index is 3.52.
With YPCLEKPRIWSLAHTATASDVEGA, the protein stability index is 2.67.
The same measure, in the same setting: then YPCLEKPRIWSLAHTATASYVEGA, with 4.34.
Same read-out and setting: the figure for YPCLEKPRIWSLAHTATASTVEGA is 2.11.

In another series the parent is B2. The series is described as above. Conditions: c terminus: a fixed tail appended.
Take FGGSFMAPSRSPVTPAQNNLLQPN: the protein stability index came out at 1.13.
Regarding FGGSFMAPSLSPVTPAQNNLLQPN, the protein stability index is 2.55.
